The subject of series [1] is lysosomal enzyme activity (rhGAA, I2S). Put plainly: Enzyme activity of lysosomal enzyme after conjugation or deglycosylation. The format is biochemical, human. The following applies: after conjugation of variant IGF2 peptide (data not shown). From the text: The high-mannose type N-glycans on rhGAA is problematic because it is believed that these carbohydrates cause the protein to be rapidly cleared from the circulation via macrophage and splenic mannose receptors. […] Deglycosylation of rhGAA can be performed after the enzyme is modified with S-Hynic and purified (via size exclusion chromatography or dialysis to remove excess crosslinker). This strategy allows for complete deglycosylation of rhGAA over 1-5 days using EndoF or EndoH without affecting enzyme activity. The deglycosylated hydrazide-modified rhGAA is then conjugated to PEG4-benzaldehyde-modified IGF-2 peptides. Alternatively, rhGAA deglycosylation can be performed concurrently during the conjugation of PEG4-benzaldehyde-modified IGF-2 peptide to hydrazide-modified rhGAA using high concentrations of EndoF or EndoH. Deglycosylated, IGF2 peptide-conjugated rhGAA is then purified by gel filtration chromatography or dialysis to remove excess phosphine-modified IGF-2 peptides and stored in acidic pH buffer (50 mM sodium phosphate, pH 6.2/100 mM NaCl/0.05% Polysorbate-80). […]
To assess the functional effects of IGF2 peptide for the cellular uptake of exogenous lysosomal enzymes, the internalization of IGF2-conjugated rbGAA (vIGF2-rhGAA) was evaluated in L6 rat skeletal muscle myoblasts. […]

The subject of a further series is Fabry disease. Particulars: 1 mg/kg body weight every other week; cited from earlier work.
Another series deals with IGF-2/CI-MPR (Homo sapiens, UniProt P11717). The following applies: ligand affinity for IGF-2/CI-MPR; read-out: Binding Affinity (Apparent Kd; nM); cited from earlier work.
Chain of IGF-2/CI-MPR (P11717 41-2491): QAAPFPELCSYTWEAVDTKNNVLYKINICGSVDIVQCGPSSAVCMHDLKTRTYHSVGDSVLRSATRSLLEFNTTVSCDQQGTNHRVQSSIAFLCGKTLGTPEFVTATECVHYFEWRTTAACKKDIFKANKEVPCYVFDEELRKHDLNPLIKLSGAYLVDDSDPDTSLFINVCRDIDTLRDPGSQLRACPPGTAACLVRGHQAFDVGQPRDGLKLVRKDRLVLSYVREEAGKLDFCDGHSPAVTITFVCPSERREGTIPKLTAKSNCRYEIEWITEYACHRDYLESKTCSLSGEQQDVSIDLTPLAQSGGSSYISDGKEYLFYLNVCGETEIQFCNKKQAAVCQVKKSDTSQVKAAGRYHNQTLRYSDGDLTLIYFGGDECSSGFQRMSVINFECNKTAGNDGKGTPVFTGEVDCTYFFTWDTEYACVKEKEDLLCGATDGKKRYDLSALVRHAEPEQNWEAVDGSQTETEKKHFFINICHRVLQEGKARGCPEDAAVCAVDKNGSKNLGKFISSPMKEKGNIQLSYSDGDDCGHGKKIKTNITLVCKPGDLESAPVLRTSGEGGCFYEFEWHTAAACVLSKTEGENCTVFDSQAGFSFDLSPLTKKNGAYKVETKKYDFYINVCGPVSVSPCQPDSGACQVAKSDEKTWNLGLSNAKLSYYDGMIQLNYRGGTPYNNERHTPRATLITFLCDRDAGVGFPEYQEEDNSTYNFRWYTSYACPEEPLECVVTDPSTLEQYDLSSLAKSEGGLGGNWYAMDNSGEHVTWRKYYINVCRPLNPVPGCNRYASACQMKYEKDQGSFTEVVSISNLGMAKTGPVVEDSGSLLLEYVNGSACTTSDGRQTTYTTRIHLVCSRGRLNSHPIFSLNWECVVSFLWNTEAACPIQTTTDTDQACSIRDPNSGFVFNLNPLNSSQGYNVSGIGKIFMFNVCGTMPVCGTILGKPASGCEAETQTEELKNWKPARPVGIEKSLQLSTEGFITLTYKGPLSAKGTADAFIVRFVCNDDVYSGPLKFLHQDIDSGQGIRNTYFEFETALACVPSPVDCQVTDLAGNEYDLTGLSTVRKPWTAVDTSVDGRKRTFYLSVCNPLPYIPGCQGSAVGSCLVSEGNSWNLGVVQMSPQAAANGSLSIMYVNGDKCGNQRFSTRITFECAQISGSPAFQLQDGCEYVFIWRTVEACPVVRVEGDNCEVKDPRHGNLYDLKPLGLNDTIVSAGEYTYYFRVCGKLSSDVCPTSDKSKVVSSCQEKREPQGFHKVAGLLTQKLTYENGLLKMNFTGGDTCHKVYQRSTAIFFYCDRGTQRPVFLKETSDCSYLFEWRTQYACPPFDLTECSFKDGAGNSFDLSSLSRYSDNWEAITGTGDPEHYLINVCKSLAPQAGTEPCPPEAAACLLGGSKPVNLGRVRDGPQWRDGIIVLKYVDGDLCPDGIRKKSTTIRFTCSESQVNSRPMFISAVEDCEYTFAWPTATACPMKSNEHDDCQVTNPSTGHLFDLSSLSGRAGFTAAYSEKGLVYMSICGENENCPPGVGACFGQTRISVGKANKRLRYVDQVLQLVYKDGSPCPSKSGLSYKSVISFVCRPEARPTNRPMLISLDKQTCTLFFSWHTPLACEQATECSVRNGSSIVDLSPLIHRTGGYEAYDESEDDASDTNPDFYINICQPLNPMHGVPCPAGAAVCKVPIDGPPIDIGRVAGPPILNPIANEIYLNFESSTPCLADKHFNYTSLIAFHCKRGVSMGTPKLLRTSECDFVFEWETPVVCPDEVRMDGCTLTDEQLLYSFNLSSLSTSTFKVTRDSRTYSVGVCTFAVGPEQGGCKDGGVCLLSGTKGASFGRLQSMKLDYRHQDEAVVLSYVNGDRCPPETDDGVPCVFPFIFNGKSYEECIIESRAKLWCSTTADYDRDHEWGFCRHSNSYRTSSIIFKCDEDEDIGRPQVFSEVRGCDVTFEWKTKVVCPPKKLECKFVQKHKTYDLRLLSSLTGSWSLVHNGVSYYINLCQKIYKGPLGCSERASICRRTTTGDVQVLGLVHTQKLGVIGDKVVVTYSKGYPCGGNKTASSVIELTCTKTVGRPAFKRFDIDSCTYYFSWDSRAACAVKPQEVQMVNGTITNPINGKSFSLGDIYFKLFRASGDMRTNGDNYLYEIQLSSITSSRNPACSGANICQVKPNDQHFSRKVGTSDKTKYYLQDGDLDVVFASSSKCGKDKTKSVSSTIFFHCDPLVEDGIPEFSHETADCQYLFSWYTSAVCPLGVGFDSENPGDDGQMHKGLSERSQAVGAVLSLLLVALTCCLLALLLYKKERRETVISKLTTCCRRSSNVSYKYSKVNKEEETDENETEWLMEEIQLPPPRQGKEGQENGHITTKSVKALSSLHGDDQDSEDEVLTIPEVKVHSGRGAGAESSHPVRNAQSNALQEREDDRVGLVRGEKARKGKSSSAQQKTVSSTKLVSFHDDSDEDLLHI

B1: I2S: Recombinant human acid iduronidate 2-sulfatase (protein, UniProt P22304 34-455; P22304 456-550, looked up)
Iduronate 2-sulfatase 42 kDa …: TDALNVLLIIVDDLRPSLGCYGDKLVRSPNIDQLASHSLLFQNAFAQQAVCAPSRVSFLTGRRPDTTRLYDFNSYWRVHAGNFSTIPQYFKENGYVTMSVGKVFHPGISSNHTDDSPYSWSFPPYHPSSEKYENTKTCRGPDGELHANLLCPVDVLDVPEGTLPDKQSTEQAIQLLEKMKTSASPFFLAVGYHKPHIPFRYPKEFQKLYPLENITLAPDPEVPDGLPPVAYNPWMDIRQREDVQALNISVPYGPIPVDFQRKIRQSYFASVSYLDTQVGRLLSALDDLQLANSTIIAFTSDHGWALGEHGEWAKYSNFDVATHVPLIFYVPGRTASLPEAGEKLFPYLDPFDSASQLMEPGRQSMDLVELVSLFPTLAGLAGLQVPPRCPVPSFHVELCREGKNLLKHFRFRDLEEDPYLPG
Iduronate 2-sulfatase 14 kDa …: NPRELIAYSQYPRPSDIPQWNSDKPSLKDIKIMGYSIRTIDYRYTVWVGFNPDEFLANFSDIHAGELYFVDSDPLQDHNMYNDSQGGDLFQLLMP
For B1, the “effect of chemical conjugation of variant IGF2 peptide on enzyme activity” value in series [1] was “did not affect enzyme activity”.

B2: Fabrazyme: recombinant acid α-galactosidase A; Genzyme Corp. (protein, UniProt P06280 32-429, looked up)
Alpha-galactosidase A: LDNGLARTPTMGWLHWERFMCNLDCQEEPDSCISEKLFMEMAELMVSEGWKDAGYEYLCIDDCWMAPQRDSEGRLQADPQRFPHGIRQLANYVHSKGLKLGIYADVGNKTCAGFPGSFGYYDIDAQTFADWGVDLLKFDGCYCDSLENLADGYKHMSLALNRTGRSIVYSCEWPLYMWPFQKPNYTEIRQYCNHWRNFADIDDSWKSIKSILDWTSFNQERIVDVAGPGGWNDPDMLVIGNFGLSWNQQVTQMALWAIMAAPLFMSNDLRHISPQAKALLQDKDVIAINQDPLGKQGYQLRQGDNFEVWERPLSGLAWAVAMINRQEIGGPRSYTIAVASLGKGVACNPACFITQLLPVKRKLGFYEWTSRLRSHINPTGTVLLQLENTMQMSLKDLL
Regarding B2, the “clinical effectiveness in Fabry disease” value in the series with Fabry disease is listed as “sufficient to clear accumulated substrate from endothelial cells”.

B3: beta-galactosidase: lysosomal enzyme listed as ligand of IGF-2/CI-MPR (protein, UniProt P16278 29-677, looked up)
Beta-galactosidase: QRMFEIDYSRDSFLKDGQPFRYISGSIHYSRVPRFYWKDRLLKMKMAGLNAIQTYVPWNFHEPWPGQYQFSEDHDVEYFLRLAHELGLLVILRPGPYICAEWEMGGLPAWLLEKESILLRSSDPDYLAAVDKWLGVLLPKMKPLLYQNGGPVITVQVENEYGSYFACDFDYLRFLQKRFRHHLGDDVVLFTTDGAHKTFLKCGALQGLYTTVDFGTGSNITDAFLSQRKCEPKGPLINSEFYTGWLDHWGQPHSTIKTEAVASSLYDILARGASVNLYMFIGGTNFAYWNGANSPYAAQPTSYDYDAPLSEAGDLTEKYFALRNIIQKFEKVPEGPIPPSTPKFAYGKVTLEKLKTVGAALDILCPSGPIKSLYPLTFIQVKQHYGFVLYRTTLPQDCSNPAPLSSPLNGVHDRAYVAVDGIPQGVLERNNVITLNITGKAGATLDLLVENMGRVNYGAYINDFKGLVSNLTLSSNILTDWTIFPLDTEDAVRSHLGGWGHRDSGHHDEAWAHNSSNYTLPAFYMGNFSIPSGIPDLPQDTFIQFPGWTKGQVWINGFNLGRYWPARGPQLTLFVPQHILMTSAPNTITVLELEWAPCSSDDPELCAVTFVDRPVIGSSVTYDHPSKPVEKRLMPPPPQKNKDSWLDHV
Turning to B3, the Kd in the series with IGF-2/CI-MPR is 20 nM.

The record behind these values is US10660972B2, “Methods for coupling targeting peptides onto recombinant lysosomal enzymes for improved treatments of lysosomal storage diseases” (AMICUS THERAPEUTICS, INC., priority 2011, dated 2020).
